Positions count from the first letter of the chain named.
How the values were obtained:
[1] = biological target: active recombinant EGFR (Millipore) (UniProt P00533)
[2] = biological target: GST-tagged partial EGFR fragment #3 (codons 1046-1186) (UniProt P00533)
[3] = system: active recombinant MET (Millipore)
[4] = system: T1, WDHD1 immunoprecipitant, wild type (c-Myc-tagged WDHD1, pcDNA3.1/myc-His-WDHD1)
T1 sequence: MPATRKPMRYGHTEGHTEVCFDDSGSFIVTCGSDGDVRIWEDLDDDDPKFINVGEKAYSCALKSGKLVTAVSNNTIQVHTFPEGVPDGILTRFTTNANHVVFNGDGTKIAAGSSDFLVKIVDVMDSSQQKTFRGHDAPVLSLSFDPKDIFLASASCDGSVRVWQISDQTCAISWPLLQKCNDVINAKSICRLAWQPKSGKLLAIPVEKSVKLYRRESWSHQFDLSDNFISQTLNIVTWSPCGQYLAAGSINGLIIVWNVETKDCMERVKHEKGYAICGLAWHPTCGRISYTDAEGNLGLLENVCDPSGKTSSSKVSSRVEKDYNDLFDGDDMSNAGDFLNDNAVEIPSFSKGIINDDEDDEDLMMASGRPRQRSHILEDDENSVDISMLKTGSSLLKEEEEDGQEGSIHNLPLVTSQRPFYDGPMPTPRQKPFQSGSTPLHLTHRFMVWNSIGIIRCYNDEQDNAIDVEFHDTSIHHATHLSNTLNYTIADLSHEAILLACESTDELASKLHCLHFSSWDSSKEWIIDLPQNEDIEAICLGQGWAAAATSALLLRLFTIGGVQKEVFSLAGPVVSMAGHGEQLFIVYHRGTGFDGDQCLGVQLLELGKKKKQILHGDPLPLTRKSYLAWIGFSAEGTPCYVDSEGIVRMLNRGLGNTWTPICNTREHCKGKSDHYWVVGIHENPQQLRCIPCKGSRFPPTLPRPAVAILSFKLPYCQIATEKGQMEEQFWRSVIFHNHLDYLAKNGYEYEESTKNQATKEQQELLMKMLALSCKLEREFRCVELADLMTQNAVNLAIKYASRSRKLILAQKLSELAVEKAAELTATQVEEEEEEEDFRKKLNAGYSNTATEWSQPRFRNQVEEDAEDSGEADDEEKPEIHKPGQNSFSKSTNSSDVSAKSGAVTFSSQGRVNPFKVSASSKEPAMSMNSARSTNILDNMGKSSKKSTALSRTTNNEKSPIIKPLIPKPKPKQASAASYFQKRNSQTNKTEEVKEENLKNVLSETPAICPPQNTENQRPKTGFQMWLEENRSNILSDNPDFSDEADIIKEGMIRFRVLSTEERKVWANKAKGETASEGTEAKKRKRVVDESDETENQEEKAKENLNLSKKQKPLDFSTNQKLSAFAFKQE

[5] = system: T2, WDHD1 S374A immunoprecipitant
T2 sequence: T1 sequence with S374A

Sequence of active recombinant EPHA7 (Carnabioscience) (chain, as listed by the source): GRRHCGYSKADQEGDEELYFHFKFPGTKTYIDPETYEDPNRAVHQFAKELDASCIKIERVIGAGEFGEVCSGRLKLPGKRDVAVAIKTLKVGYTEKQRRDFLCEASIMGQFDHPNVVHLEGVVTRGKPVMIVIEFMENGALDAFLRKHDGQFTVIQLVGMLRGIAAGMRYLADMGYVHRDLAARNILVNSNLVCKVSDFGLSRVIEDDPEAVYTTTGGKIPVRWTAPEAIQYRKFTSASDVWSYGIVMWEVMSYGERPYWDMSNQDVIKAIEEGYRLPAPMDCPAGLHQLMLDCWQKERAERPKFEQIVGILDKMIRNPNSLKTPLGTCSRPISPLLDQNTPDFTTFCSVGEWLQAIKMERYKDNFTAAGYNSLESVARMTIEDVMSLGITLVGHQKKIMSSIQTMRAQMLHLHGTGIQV
Sequence of active recombinant MET (Millipore) (chain, as listed by the source): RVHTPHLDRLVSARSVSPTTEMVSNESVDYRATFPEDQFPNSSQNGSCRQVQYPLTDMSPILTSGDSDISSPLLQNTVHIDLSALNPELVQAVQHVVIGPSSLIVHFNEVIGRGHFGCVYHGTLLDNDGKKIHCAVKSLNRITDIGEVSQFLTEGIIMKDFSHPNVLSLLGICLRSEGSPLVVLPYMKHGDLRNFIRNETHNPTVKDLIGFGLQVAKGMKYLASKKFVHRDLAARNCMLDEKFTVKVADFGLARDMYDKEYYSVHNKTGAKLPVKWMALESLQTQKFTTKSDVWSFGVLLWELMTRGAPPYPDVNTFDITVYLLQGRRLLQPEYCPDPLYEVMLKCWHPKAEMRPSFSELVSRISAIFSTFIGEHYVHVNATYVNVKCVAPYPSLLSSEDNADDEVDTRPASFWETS

active recombinant EPHA7 (Carnabioscience)
in vitro kinase assay (phosphorylation of EGFR) [1]: EPHA7 could directly phosphorylate EGFR under the existence of EGFR kinase inhibitor that had diminished autophosphorylation of EGFR | in vitro kinase assay (phosphorylation of partial EGFR fragment) [2]: phosphorylated tyrosine residues on cytoplasmic EGFR could be present in COOH-terminal portion (codons 1046-1186) | in vitro kinase assay (level of EPHA7 phosphorylation) [3]: the level of EPHA7 phosphorylation was markedly elevated when MET was co-incubated in the presence MET kinase inhibitor | in vitro kinase assay (phosphorylation of MET) [3]: EPHA7 could directly phosphorylate MET

recombinant human AKT1 (rhAKT1; Invitrogen)
in vitro kinase assay, immunoblot with PAS antibody [4]: proved the direct phosphorylation of WDHD1 by AKT | in vitro kinase assay, immunoblot with PAS antibody [5]: clearly indicated the reduced levels of WDHD1 phosphorylation in cells transfected with S374A mutant
